± gives the uncertainty stated by the source.

This data set can be described thus: amyloid nucleation score (Sup35N fusion, yeast selection) (log enrichment); library NNK2; higher = more nucleation; inactive = no reads after selection. The gist of the method: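 Peptides of 20 random codons, each fused to Sup35N, were expressed in psi-negative yeast. Cells were induced with 100 μM copper sulfate for 24 hours and grown 7 days at 30°C on medium lacking adenine and uracil, and plasmid inserts before and after selection were Illumina-sequenced. Nucleation scores are DiMSum log enrichments of output over input reads, centred on the mode score of non-aggregating sequences, and sequences under 100 input reads were excluded.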
GRVFIASLIARTDPPKLVFK came in with an amyloid nucleation score of 1.67 ± 0.083.
Turning to GRWSRF, the amyloid nucleation score was found to be 0.446 ± 0.64.
Turning to GSCSKCNWCINKTAQGFVLS, the amyloid nucleation score was -0.062 ± 0.45.
The figure for GSFMYSREVRLRYALARSFE is -0.545 ± 0.41.
Next, GSHLSSSFTKWMGIPAMVFR: -0.134 ± 0.54.
Next, GSKTRFF: “inactive”; GSSGFGRVLTGIYKCYTYWE: “inactive”.
For GSSRLCRQYAVNFFDCHMYD, the amyloid nucleation score came out at 4.78 ± 0.056.
Take GSSTMWNVLVAWLRTIL: the amyloid nucleation score entry was “inactive”.
Take GSVFSKHQGSFVFSLQQLGL: the amyloid nucleation score was -1.43 ± 0.34.
Next, GSVHANKD: -0.299 ± 0.63; GSVRTDVLSPRFGGTGHLVN: -0.116 ± 0.54.
In turn, GSVTRGVRRAY showed an amyloid nucleation score of 4.73 ± 0.06.
As for GSVYKCLGSWVIYRFIFSWV, the amyloid nucleation score worked out at 1.19 ± 0.66.
For the substance GSYPGRLFTCVKMGVT, the amyloid nucleation score was 0.363 ± 0.65.
GSYVDEVSIYPDEACSYRLA: the amyloid nucleation score was -0.187 ± 0.76.
Substance GTAYAHFFEVNFTSKLLAEF registered an amyloid nucleation score of 1.76 ± 0.18.
Next, GTHPCLQVCDDRGDWLLA: 0.868 ± 0.29.
Turning to GTIFMRALKNAVYASSRALI, the amyloid nucleation score was -0.247 ± 0.54.
Substance GTLWLGDAGRAEN showed an amyloid nucleation score of 0.589 ± 0.39.
The figure for GTRDHGELGLLFTTTLLFVE is 1.39 ± 0.13.
For the substance GTTCDIEDVPCMLVVDTLLV, the amyloid nucleation score came out at 1.42 ± 0.16.
For the substance GTVFCYLM, the amyloid nucleation score was -1.05 ± 1.
For GVFLGALCVFTSCLSELWMC, the amyloid nucleation score was -1.49 ± 0.78.
In turn, GVHLYLNVYVTLKFTATGDS had an amyloid nucleation score of 5.79 ± 0.077.
For GVKSFGVFGSMYWILMFSKA, the amyloid nucleation score is -0.495 ± 0.48.
On to GVRAGACLGNGSVYSSGGRF, for which the amyloid nucleation score entry was “inactive”.
The figure for GVSWTFFGEYFQPCSSMKVN is -0.538 ± 0.46; for GVTFNADASTFRDACMARLG it is 0.752 ± 0.48.
As to GVTFSSMLRPFSAIAKRLVV, the amyloid nucleation score turned out to be 0.733 ± 0.56.
Consider GVTSCLRRPWFKYVILSPRP, for which the amyloid nucleation score was 1.44 ± 0.21.
For GVVPQGMMTI, the amyloid nucleation score is -0.701 ± 0.55.
On to GWFFDFFITCPVSHSTFSKL, for which the amyloid nucleation score turned out to be 2.19 ± 0.14.
For GWMHFVALKGFSNHGRAGSG, the amyloid nucleation score was 0.448 ± 0.57.
On to GWQGISAVSRGTGCWLEGTG, for which the amyloid nucleation score was found to be 0.649 ± 0.34.
Next, GWRFL: -1.17 ± 0.54.
In turn, GWSYNLSETLKQSVESVLTS returned an amyloid nucleation score of 1.42 ± 0.44.
GWVVRRINAVVFVASGSI returned an amyloid nucleation score of 5.601 ± 0.048.
Consider GYCKVGCFHLRYGSACCVRM, for which the amyloid nucleation score was 0.511 ± 0.41.
For the substance GYGVAWLYGISDSVRLRAPY, the amyloid nucleation score turned out to be 0.335 ± 0.42.
As for GYINEYCCHLRVNGLLRAPG, the amyloid nucleation score is -0.315 ± 0.5.
GYINWSCDRDMFSRTTDFLG: the amyloid nucleation score is -0.592 ± 0.34.
Consider GYLILFTCNPLVFLVNRSGR, for which the amyloid nucleation score result was “inactive”.
With GYLSGYLRGSNILGHERYRY, the amyloid nucleation score is -0.85 ± 0.32.
The entry for GYRVDLIILKFDLWYEY is “inactive”.
In the case of GYVGLGFNLTHAFGFGSLAG, the amyloid nucleation score was determined as 0.656 ± 0.23.
Next, GYYCDYSNTSRATRNMASKR: -0.719 ± 0.32; HACSMSIFEFRMCKKWSLLV: -0.848 ± 0.38; HAFRDIMYTVTRSWAKRWFY: 1.56 ± 0.11.
Take HALGGDWHGLGGINS: the amyloid nucleation score is -1.43 ± 0.55.
For the substance HARHRGVCFWCVADSAPVYH, the amyloid nucleation score is -0.012 ± 1.1.
Regarding HATLNPSSLSATSSNPACRL, the amyloid nucleation score was 0.171 ± 0.31.
The figure for HCIMYSTLRHRVWSGRLDGS is 3.86 ± 0.089; for HDIVRIALHYQQRVVCAWSC it is 0.713 ± 0.24.
Next, HDKAHLRTCVVFRLESSGG: 4.29 ± 0.085; HFNSTNPTRLLVDEEFFYFE: -0.317 ± 0.5.
Turning to HFSLAC, the amyloid nucleation score is -0.91 ± 0.48.
In turn, HGASSVAFNLLLSCVSWVGC registered an amyloid nucleation score of 7.468 ± 0.04.
The figure for HGKRFYAECLIVFPIDKRGA is 0.098 ± 1; for HGQISLRMWQVRR it is 5.759 ± 0.052.
HGTATCVAILMNRL: the amyloid nucleation score worked out at 6.35 ± 0.077.
Regarding HGTNTRADYFCIYPHGNG, the amyloid nucleation score is -0.281 ± 0.37.
In turn, HIFGNRYWYSFCCFLLLPRR gave an amyloid nucleation score of 7.691 ± 0.072.
The substance HIIIFLWYRRHFSS yielded an amyloid nucleation score of 1.78 ± 0.22.
Take HIRFVDWNDTLIWVANGYI: the amyloid nucleation score was determined as 0.049 ± 0.8.
With HIRFYVLSRNRSASNISIFT, the amyloid nucleation score amounted to 3.09 ± 0.054.
The figure for HISYVNSSRL is 4.05 ± 0.078.
The figure for HKAFVAAVERWAEYLDADVS is -0.585 ± 0.63; for HKRFKEGLSG it is 0.047 ± 0.36.
HLCKLSYI came in with an amyloid nucleation score of 1.2 ± 0.33.
As for HLFACSTYKSSHRVQVCTVI, the amyloid nucleation score was -0.497 ± 1.
On to HLLIRGVMSTKNRCSLLVIG, for which the amyloid nucleation score is -0.582 ± 0.44.
As for HLLRNLLPHKVGSHVHRWLR, the amyloid nucleation score entry was “inactive”.
Substance HLNVKLKQVKDGQPCLMRLA returned an amyloid nucleation score of 1.67 ± 0.4.
For HLSTSGYVAFLKHLTLCKVL, the amyloid nucleation score is -0.347 ± 1.1.
Regarding HLTEFNNRRRLGTDLAGVGN, the amyloid nucleation score was 0.109 ± 0.33.
For HLTESHFGWFGSDVSSQTFL, the amyloid nucleation score was found to be 3.42 ± 0.084.
The substance HMFPRWPFDVVKKDPTTTHL had an amyloid nucleation score of 0.31 ± 0.41.
For the substance HMSTVLLAVAFIALNFPSVE, the amyloid nucleation score is -0.373 ± 1.
With HNGVIVIDCWRRKFHPNVIS, the amyloid nucleation score is -0.922 ± 1.
For the substance HNLEWKNRNQTWSSLTPIVW, the amyloid nucleation score was determined as 0.384 ± 0.44.
The figure for HNVEGRDRVVLMFSIKCCML is 5.92 ± 0.061.
For HNVYMVFYFAFFSPFMIRYI, the amyloid nucleation score was 3.44 ± 0.088.
Regarding HNYIWARTRSRGRPMYSVPA, the amyloid nucleation score came out at 0.798 ± 0.33.
Regarding HNYMLVILHRDSPNLNLGHS, the amyloid nucleation score is 3.94 ± 0.12.
For the substance HPMLLMKNARG, the amyloid nucleation score was -0.086 ± 0.27.
Substance HPRTPGLVIEDKKNLFLVWR yielded an amyloid nucleation score of 5.22 ± 0.057.
Next, HPTLEPGKHYLRVSKSNTSR: 0.404 ± 0.26; HQAWSCSTVGFDLAVVNFAD: -0.197 ± 0.43.
With HQFYHFAEENN, the amyloid nucleation score is -0.249 ± 1.
In turn, HQLPVHEPYEYWLQQGSNCP registered an amyloid nucleation score of 0.353 ± 0.56.
For the substance HQRYSRLLIKKCYTSASVPC, the amyloid nucleation score is -0.245 ± 0.62.
For the substance HRASRMCGINLARPTVMVVT, the amyloid nucleation score turned out to be 1.9 ± 0.12.
The figure for HRDGLPVVTL is 0.034 ± 1.1.
On to HRLVGTC, for which the amyloid nucleation score came out at 1.86 ± 0.21.
Consider HRMRVSIGATYVTALYQVKD, for which the amyloid nucleation score came to 3.18 ± 0.095.
Next, HRNNQMQCVFAFLW: 7.199 ± 0.053; HRRCMFQNTAMRHRQWDA: 0.841 ± 0.44; HRTGWKIFVSW: 0.732 ± 0.17.
In the case of HRTVRFP, the amyloid nucleation score result is “inactive”.
Take HSFLPRGHVADYNKLPVWSV: the amyloid nucleation score is -0.707 ± 0.61.
In turn, HSGFADFGRMEMIRDPTGRD had an amyloid nucleation score of 1.96 ± 0.15.
As to HSMQSVPKWKL, the amyloid nucleation score is 1.86 ± 0.25.
As for HSMSYFDYAIRLDRVGDVIS, the amyloid nucleation score worked out at 0.339 ± 0.38.
In turn, HSRLLCWANVDLERFSEWSG showed an amyloid nucleation score of 1.46 ± 0.23.
Take HSTIAVSCY: the amyloid nucleation score turned out to be 0.219 ± 1.
As for HSWVFLWRGNCSFWRDSFKV, the amyloid nucleation score entry was “inactive”.
For HSYITG, the amyloid nucleation score worked out at 0.018 ± 0.19.
The figure for HTFITVPASGRAATLCTSED is 1.14 ± 0.12; for HTRLHKGIQRVEIGSMNGK it is -0.637 ± 1.1; for HTSFIMYMYHSRIWHGMYQT it is “inactive”.
The figure for HVAESHMS is 1.16 ± 0.43.
The figure for HVGVHSNFLQIS is -1.34 ± 1; for HVLSLGAGWKYVGVDECKE it is 0.317 ± 0.31; for HVNGL it is 0.098 ± 0.5.
Regarding HVVMFS, the amyloid nucleation score was -0.38 ± 0.76.
Take HWTSFKSGNALGMCETI: the amyloid nucleation score came out at 0.076 ± 0.41.
On to HYCVIEKRSHIG, for which the amyloid nucleation score is -0.739 ± 0.64.
For the substance HYFRIAIL, the amyloid nucleation score was -0.667 ± 0.45.
The figure for HYITKFSYDLGRKAKALVLS is -0.626 ± 0.54; for HYLPT it is -0.208 ± 0.35.
The figure for HYRSFVDFITGWLVSFATEP is 4.28 ± 0.054; for IAACLFYNRSVNIFTGVDGL it is 4.09 ± 0.14.
Next, IACYMMGLRLL: -0.414 ± 0.41.
The substance IADIVEHCCAVRVCALGGLM gave an amyloid nucleation score of 0.393 ± 0.8.
On to IAGLTISSAISGSWDVVKPS, for which the amyloid nucleation score is 4.38 ± 0.052.
The substance IAHCCFGQF had an amyloid nucleation score of 7.634 ± 0.074.
IAIRFIDDYCGFRGV showed an amyloid nucleation score of 0.288 ± 0.8.
The figure for IATHHTDESAG is -0.083 ± 0.79; for ICCGVEHWYVIGFNVGSFYF it is 7.964 ± 0.039; for ICFGGTLSWSCVVAILNLSN it is 5.616 ± 0.027.
ICISGAFNVTAHLKLAQASL displayed an amyloid nucleation score of 0.295 ± 1.
As to ICLVLCRGSDA, the amyloid nucleation score is 0.554 ± 0.74.
On to ICSSYALGQSTETG, for which the amyloid nucleation score was -0.559 ± 0.76.
Next, ICTALGGWWSKEVMSADMFL: 0.811 ± 0.67; ICVRERNRSYRMPFMMFVVR: -0.017 ± 1; IDDCVKGKTPGNSGNMFCLP: -1.06 ± 0.42.
The figure for IDDDHLEHEVNGSRRCKMRW is -0.055 ± 1.1.
The figure for IDFLM is -0.744 ± 0.39.
